Experimental data as given in the supplement of paper PMC10724198.

Tested on: Saccharomyces cerevisiae
Assay: protein stability index of tFT-peptide fusion in wild type (PSI (0-1 scale)); higher = more stable (slower turnover)
Conditions: genetic background: wild type
Method: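 MPS profiling in S. cerevisiae of two library types built from selected 12-aa C-degron peptides (IN1, IN2, LN1, LN3, VN2, R1-R5, W1-W3, Atg1 and Rpa12 C-termini): saturation mutagenesis libraries and C-terminal +1 capping libraries (13 aa). Each peptide is fused to the C-terminus of a sfGFP-mCherry timer, after a GGGS linker. Cells are FACS-sorted into 8 mCherry/sfGFP bins and sequenced. PSI runs from 0 (unstable) to 1 (stable), measured once in wild type and in the das1Δ or doa10Δ background.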
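Note: PSI derived as read-weighted mean over the 8 sorting bins, only variants exceeding 10 total reads kept, mCherry placed adjacent to the peptide and sfGFP distal.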

Compared with LKILRQKMWHQN, LKILRQTMNHQN is lower in protein stability index: 0.238 for the first, 0.224 for the second.

Going from LKILRVKMNHQN to LKILTQKMNHQN, the protein stability index rises from 0.187 to 0.276.

Compared with LKILWQKMNHQN, LKIWRQKMNHQN is lower in protein stability index: 0.206 for the first, 0.176 for the second.

Going from LKIYRQKMNHQN to LRGAVGGWRLVG, the protein stability index falls from 0.182 to 0.149.

Going from LSILRQKMNHQN to LSLAASFWRVVG, the protein stability index rises from 0.127 to 0.129.

Going from LVKYLSCVACIN to LVMYLSCVACIN, the protein stability index falls from 0.09 to 0.0125.

First: LVSYLSCVACIN
Second: LVVVLSCVACIN
The protein stability index of the first is higher: 0.0799 for the first, 0.0126 for the second.

First: LVVWLSCVACIN
Second: LVVYCSCVACIN
The protein stability index of the first is lower: 0.0122 for the first, 0.0182 for the second.

First: LVVYLQCVACIN
Second: LVVYLSAVACIN
The protein stability index of the first is higher: 0.0274 for the first, 0.0153 for the second.

First: LVVYLSCSACIN
Second: LVVYLSCVACDN
The protein stability index of the first is lower: 0.0177 for the first, 0.249 for the second.

Going from LVVYLSCVACIH to LVVYLSCVACIT, the protein stability index rises from 0.0123 to 0.0143.

Compared with LVVYLSCVACKN, LVVYLSCVADIN is higher in protein stability index: 0.034 for the first, 0.108 for the second.

Compared with LVVYLSCVAGIN, LVVYLSCVANIN is lower in protein stability index: 0.13 for the first, 0.0173 for the second.

Compared with LVVYLSCVAQIN, LVVYLSCVKCIN is higher in protein stability index: 0.014 for the first, 0.146 for the second.

Going from LVVYLSEVACIN to LVVYLTCVACIN, the protein stability index falls from 0.264 to 0.0129.

Compared with LVVYLYCVACIN, MDKRNHLIKLLN is higher in protein stability index: 0.0123 for the first, 0.111 for the second.

Compared with MKILRQKMNHQN, MRGAVGGWRLVG is lower in protein stability index: 0.163 for the first, 0.146 for the second.

Going from MRWRVGLWRGAS to PCKRNHLIKLLN, the protein stability index falls from 0.143 to 0.112.

Compared with PCLAASFWRVVG, PDKCNHLIKLLN is higher in protein stability index: 0.128 for the first, 0.209 for the second.

Going from PDKQNHLIKLLN to PDKRCHLIKLLN, the protein stability index falls from 0.189 to 0.0642.

Going from PDKRNHAIKLLN to PDKRNHDIKLLN, the protein stability index rises from 0.186 to 0.407.

First: PDKRNHLIKFLN
Second: PDKRNHLIKLKN
The protein stability index of the first is lower: 0.112 for the first, 0.273 for the second.

Compared with PDKRNHLIKLLM, PDKRNHLIKLLV is higher in protein stability index: 0.112 for the first, 0.118 for the second.

Going from PDKRNHLIKLLY to PDKRNHLIKLYN, the protein stability index rises from 0.328 to 0.343.

PDKSNHLIKLLN and PIKRNHLIKLLN are the same in protein stability index: 0.157 for the first, 0.157 for the second.

Compared with PNLAASFWRVVG, PQLAASFWRVVG is higher in protein stability index: 0.144 for the first, 0.152 for the second.

Going from PRGAVGGWRLVG to PRLAASFWRVVG, the protein stability index rises from 0.169 to 0.197.

First: PSIAASFWRVVG
Second: PSLAACFWRVVG
The protein stability index of the first is higher: 0.143 for the first, 0.141 for the second.

Going from PSLAAHFWRVVG to PSLAAIFWRVVG, the protein stability index falls from 0.155 to 0.138.

Going from PSLAASFPRVVG to PSLAASFSRVVG, the protein stability index rises from 0.659 to 0.665.

Compared with PSLAASFWPVVG, PSLAASFWRVAG is lower in protein stability index: 0.656 for the first, 0.256 for the second.

First: PSLAASFWRVVC
Second: PSLAASFWRVVD
The protein stability index of the first is lower: 0.119 for the first, 0.48 for the second.

First: PSLAASFWRVVGC
Second: PSLAASFWRVVGY
The protein stability index of the first is higher: 0.664 for the first, 0.658 for the second.

First: PSLAASFWRVVS
Second: PSLAASFWRVVV
The protein stability index of the first is higher: 0.15 for the first, 0.144 for the second.

Going from PSLAASFWVVVG to PSLAASWWRVVG, the protein stability index falls from 0.249 to 0.179.

First: PSLAAVFWRVVG
Second: PSLAKSFWRVVG
The protein stability index of the first is lower: 0.146 for the first, 0.375 for the second.

First: PSLAVSFWRVVG
Second: PSLGASFWRVVG
The protein stability index of the first is lower: 0.137 for the first, 0.207 for the second.

Going from PSLSASFWRVVG to PSVAASFWRVVG, the protein stability index falls from 0.176 to 0.142.

Going from PTSCGYKFRTNN to PVKRNHLIKLLN, the protein stability index falls from 0.219 to 0.129.

First: PWKRNHLIKLLN
Second: QKILRQKMNHQN
The protein stability index of the first is lower: 0.0786 for the first, 0.152 for the second.

Going from QTSCGYKFRTNN to RFIQPLPVQFLN, the protein stability index falls from 0.206 to 0.0529.

Compared with RLCQPLPVQFLN, RLIQGLPVQFLN is higher in protein stability index: 0.0327 for the first, 0.0788 for the second.

Compared with RLIQMLPVQFLN, RLIQPCPVQFLN is higher in protein stability index: 0.0223 for the first, 0.0722 for the second.

Going from RLIQPDPVQFLN to RLIQPLKVQFLN, the protein stability index falls from 0.216 to 0.054.

First: RLIQPLPIQFLN
Second: RLIQPLPKQFLN
The protein stability index of the first is lower: 0.0384 for the first, 0.103 for the second.

Going from RLIQPLPMQFLN to RLIQPLPVQFEN, the protein stability index rises from 0.0399 to 0.627.

First: RLIQPLPVQFHN
Second: RLIQPLPVQFLA
The protein stability index of the first is higher: 0.24 for the first, 0.139 for the second.

First: RLIQPLPVQFLF
Second: RLIQPLPVQFLL
The protein stability index of the first is higher: 0.247 for the first, 0.2 for the second.

Going from RLIQPLPVQFTN to RLIQPLPVQFYN, the protein stability index falls from 0.377 to 0.0309.

Compared with RLIQPLPVQILN, RLIQPLPVQSLN is higher in protein stability index: 0.309 for the first, 0.457 for the second.

Compared with RLIQPLPVTFLN, RLIQPLYVQFLN is higher in protein stability index: 0.0559 for the first, 0.0572 for the second.

Compared with RLIQPYPVQFLN, SKHKKGQKQKIN is higher in protein stability index: 0.0613 for the first, 0.153 for the second.

First: STSCGYKFRTNN
Second: VNGAVGGWRLVG
The protein stability index of the first is higher: 0.237 for the first, 0.141 for the second.

First: VRGAVGGSRLVG
Second: VRGAVGGWILVG
The protein stability index of the first is higher: 0.642 for the first, 0.25 for the second.

Going from VRGAVGGWKLVG to VRGAVGGWRLGG, the protein stability index rises from 0.203 to 0.69.

First: VRGAVGGWRLSG
Second: VRGAVGGWRLVGI
The protein stability index of the first is lower: 0.403 for the first, 0.664 for the second.

First: VRGAVGGWRLVL
Second: VRGAVGLWRLVG
The protein stability index of the first is higher: 0.572 for the first, 0.164 for the second.

Going from VRGAVVGWRLVG to VRGAYGGWRLVG, the protein stability index falls from 0.141 to 0.114.

Sequence VTSCGYKFRTNN has a protein stability index of 0.214.
